Reference: PMC6358605

Biological target: BiP NBD (28–413) (Chinese hamster) (UniProt G3I8R9)
Sequence (G3I8R9 28-413): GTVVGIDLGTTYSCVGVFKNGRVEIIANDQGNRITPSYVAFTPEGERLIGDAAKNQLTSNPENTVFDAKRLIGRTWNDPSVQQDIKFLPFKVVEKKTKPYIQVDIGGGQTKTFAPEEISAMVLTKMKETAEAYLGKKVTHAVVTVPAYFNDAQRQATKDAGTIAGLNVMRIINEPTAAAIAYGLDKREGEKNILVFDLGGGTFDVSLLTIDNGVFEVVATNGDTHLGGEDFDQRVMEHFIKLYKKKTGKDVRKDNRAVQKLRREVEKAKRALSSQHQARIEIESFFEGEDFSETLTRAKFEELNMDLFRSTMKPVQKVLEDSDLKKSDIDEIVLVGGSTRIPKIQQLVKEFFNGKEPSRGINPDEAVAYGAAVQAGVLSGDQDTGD

Substance: Full-length mouse MANF (wild-type) (from UniProt Q9CXI5 22-179) (natural protein)
- inhibition of MABA-ADP release, concentration-dependent (Supplementary Fig. 4a, b): 26.5 µM
